Among the data in the supplement of paper PMC10567573 are protein stability index values, retold here.

B1: TRIM55 (parent)
chain: ICPICLEMFTKPVVILPCQHNLCR
B2: TRIM63 (parent)
chain: QRITQEQEKKLSFIEALIQQYQEQ
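Further: lentivirally expressed fusions sorted by FACS into six bins by GFP to DsRed ratio, PSI derived from sequencing read proportions per bin multiplied by bin number.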

In one series the parent is B1. The experiment in a line: protein stability index of a GFP-peptide fusion (GPS, HEK-293T) (PSI 1-6); higher = more stable. Particulars: c terminus: a fixed tail appended.
Consider ICPICLEMFTKPVVILPQQHNLCR [C18Q], for which the protein stability index was 2.19.
Consider ICPICLEMFTKPVVILPLQHNLCR [C18L], for which the protein stability index amounted to 1.77.
Still for that read-out and setting: to ICPICLEMFTKPVVILPYQHNLCR [C18Y] belongs 1.79.
Still for that read-out and setting: to ICPICLEMFTKPVVILPSQHNLCR [C18S] belongs 2.23.
Take ICPICLEMFTKPVVILPEQHNLCR [C18E]: the protein stability index came to 2.48.
On the same count and under the same terms, to ICPICLEMFTKPVVILPGQHNLCR [C18G] belongs 2.26; to ICPICLEMFTKPVVILPKQHNLCR [C18K], 1.89.
Same read-out and setting: to ICPICLEMFTKPVVILPVQHNLCR [C18V] belongs 1.91.
For the variant ICPICLEMFTKPVVILPFQHNLCR [C18F], the protein stability index was 1.89.
The same measure, in the same setting: to ICPICLEMFTKPVVILPNQHNLCR [C18N] belongs 1.81; to ICPICLEMFTKPVVILPMQHNLCR [C18M], 2.16.
Still for that read-out and setting: to ICPICLEMFTKPVVILPCQHNLWR [C23W] belongs 2.05; to ICPICLEMFTKPVVILPCQHNLSR [C23S], 1.93.
Same read-out and setting: to ICPICLEMFTKPVVILPCQHNLQR [C23Q] belongs 2.21; to ICPICLEMFTKPVVILPCQHNLRR [C23R], 2.47; to ICPICLEMFTKPVVILPCQHNLAR [C23A], 1.72.
With ICPICLEMFTKPVVILPCQHNLHR [C23H], the protein stability index was found to be 2.92.
The same measure, in the same setting: to ICPICLEMFTKPVVILPCQHNLVR [C23V] belongs 2.46; to ICPICLEMFTKPVVILPCQHNLFR [C23F], 1.73.
Still for that read-out and setting: to ICPICLEMFTKPVVILPCQHNLDR [C23D] belongs 1.97.
The same measure, in the same setting: to ICPICLEMFTKPVVILPCQHNLIR [C23I] belongs 1.82.
On to ICPICLEMFTKPVVILPCQHNLKR [C23K], for which the protein stability index amounted to 2.03.
For ICPICLEMFTKPVVILPCQHNLNR [C23N], the protein stability index is 2.13.
Still for that read-out and setting: to ICPICLEMFTKPVVILPCQHNLPR [C23P] belongs 2.24.
The same measure, in the same setting: to ICPICLEMFTKPVVILPCQHNLGR [C23G] belongs 2.01; to ICPICLEMFTKPVVILPCQHNLLR [C23L], 2.28.
ICPICLEMFTKPVVILPCQHNLMR [C23M]: the protein stability index was 2.43.
For the variant ICPICLEMFTKPVVILPCQHNLER [C23E], the protein stability index stood at 2.65.
Still for that read-out and setting: to ICPICLEMFTKPVVILPCQHNLTR [C23T] belongs 2.64; to ICPICLEMFTKPVVILPCQHNLYR [C23Y], 2.25.
Same read-out and setting: to ICPICLEMFTKPVVILPCQHSLCR [N21S] belongs 2.93; to ICPICLEMFTKPVVILPCQHELCR [N21E], 2.54; to ICPICLEMFTKPVVILPCQHMLCR [N21M], 2.29.
In the case of ICPICLEMFTKPVVILPCQHQLCR [N21Q], the protein stability index was determined as 2.17.
For the variant ICPICLEMFTKPVVILPCQHTLCR [N21T], the protein stability index amounted to 2.39.
The same measure, in the same setting: to ICPICLEMFTKPVVILPCQHDLCR [N21D] belongs 2.23; to ICPICLEMFTKPVVILPCQHALCR [N21A], 2.73.
For the variant ICPICLEMFTKPVVILPCQHCLCR [N21C], the protein stability index amounted to 2.2.
On the same count and under the same terms, to ICPICLEMFTKPVVILPCQHLLCR [N21L] belongs 2.01.
In the case of ICPICLEMFTKPVVILPCQHWLCR [N21W], the protein stability index was determined as 2.19.
Same read-out and setting: to ICPICLEMFTKPVVILPCQHGLCR [N21G] belongs 2.71; to ICPICLEMFTKPVVILPCQHHLCR [N21H], 2.39.
On the same count and under the same terms, to ICPICLEMFTKPVVILPCQHFLCR [N21F] belongs 2.53; to ICPICLEMFTKPVVILPCQHKLCR [N21K], 1.74.
The same measure, in the same setting: to ICPICLEMFTKPVVILPCQHYLCR [N21Y] belongs 2.48.
Regarding ICPICLEMFTKPVVILPCQHILCR [N21I], the protein stability index was determined as 2.04.
Consider ICPICLEMFTKPVVILPCQHPLCR [N21P], for which the protein stability index amounted to 2.52.
The same measure, in the same setting: to ICPICLEMFTKPVVILPCQHVLCR [N21V] belongs 2.35.
In the case of ICPICLEMFTKPVVILPCQHRLCR [N21R], the protein stability index was 2.31.
Still for that read-out and setting: to ICPICLEMFTKPVVILPCQHNLCN [R24N] belongs 2.95; to ICPICLEMFTKPVVILPCQHNLCC [R24C], 2.27.
Turning to ICPICLEMFTKPVVILPCQHNLCF [R24F], the protein stability index is 2.01.
Still for that read-out and setting: to ICPICLEMFTKPVVILPCQHNLCT [R24T] belongs 2.71; to ICPICLEMFTKPVVILPCQHNLCA [R24A], 1.92.
Same read-out and setting: to ICPICLEMFTKPVVILPCQHNLCY [R24Y] belongs 2.13; to ICPICLEMFTKPVVILPCQHNLCS [R24S], 1.85.
The same measure, in the same setting: to ICPICLEMFTKPVVILPCQHNLCL [R24L] belongs 2.11; to ICPICLEMFTKPVVILPCQHNLCH [R24H], 2.4.
With ICPICLEMFTKPVVILPCQHNLCK [R24K], the protein stability index came to 2.32.
The same measure, in the same setting: to ICPICLEMFTKPVVILPCQHNLCG [R24G] belongs 2.41; to ICPICLEMFTKPVVILPCQHNLCD [R24D], 2.27.
With ICPICLEMFTKPVVILPCQHNLCW [R24W], the protein stability index is 2.35.
For the variant ICPICLEMFTKPVVILPCQHNLCV [R24V], the protein stability index worked out at 1.83.
Still for that read-out and setting: to ICPICLEMFTKPVVILPCQHNLCQ [R24Q] belongs 2.57; to ICPICLEMFTKPVVILPCQHNLCP [R24P], 2.32; to ICPICLEMFTKPVVILPCQHNLCM [R24M], 2.15.
On the same count and under the same terms, to ICPICLEMFTKPVVILPCQHNLCI [R24I] belongs 2.24; to ICPICLEMFTKPVVILPCQHNLCE [R24E], 2.11.

The next series covers variants of B2. The description is as above. Particulars: c terminus: a fixed tail appended.
Take QCITQEQEKKLSFIEALIQQYQEQ [R2C]: the protein stability index was 2.85.
Same read-out and setting: to QHITQEQEKKLSFIEALIQQYQEQ [R2H] belongs 2.44; to QDITQEQEKKLSFIEALIQQYQEQ [R2D], 3.23.
Same read-out and setting: to QFITQEQEKKLSFIEALIQQYQEQ [R2F] belongs 2.06.
On the same count and under the same terms, to QEITQEQEKKLSFIEALIQQYQEQ [R2E] belongs 1.88; to QAITQEQEKKLSFIEALIQQYQEQ [R2A], 2.57.
As for QGITQEQEKKLSFIEALIQQYQEQ [R2G], the protein stability index was determined as 2.35.
Still for that read-out and setting: to WRITQEQEKKLSFIEALIQQYQEQ [Q1W] belongs 1.95; to MRITQEQEKKLSFIEALIQQYQEQ [Q1M], 2.36; to HRITQEQEKKLSFIEALIQQYQEQ [Q1H], 2.84.
In the case of YRITQEQEKKLSFIEALIQQYQEQ [Q1Y], the protein stability index worked out at 1.95.
The same measure, in the same setting: to ERITQEQEKKLSFIEALIQQYQEQ [Q1E] belongs 3.15; to FRITQEQEKKLSFIEALIQQYQEQ [Q1F], 2.91.
On the same count and under the same terms, to SRITQEQEKKLSFIEALIQQYQEQ [Q1S] belongs 2.23; to TRITQEQEKKLSFIEALIQQYQEQ [Q1T], 2.19; to VRITQEQEKKLSFIEALIQQYQEQ [Q1V], 1.79.
The same measure, in the same setting: to IRITQEQEKKLSFIEALIQQYQEQ [Q1I] belongs 2.75; to PRITQEQEKKLSFIEALIQQYQEQ [Q1P], 2.17.
In the case of CRITQEQEKKLSFIEALIQQYQEQ [Q1C], the protein stability index turned out to be 2.11.
Same read-out and setting: to GRITQEQEKKLSFIEALIQQYQEQ [Q1G] belongs 2.13; to ARITQEQEKKLSFIEALIQQYQEQ [Q1A], 2.3.
Take KRITQEQEKKLSFIEALIQQYQEQ [Q1K]: the protein stability index is 2.17.
Same read-out and setting: to RRITQEQEKKLSFIEALIQQYQEQ [Q1R] belongs 2.16.
Consider DRITQEQEKKLSFIEALIQQYQEQ [Q1D], for which the protein stability index stood at 2.32.
On the same count and under the same terms, to LRITQEQEKKLSFIEALIQQYQEQ [Q1L] belongs 2.57; to NRITQEQEKKLSFIEALIQQYQEQ [Q1N], 2.31.
